Measurements as given in paper PMC12187939.

Columns and labels:
[1] = biological target: CBP, A549 nuclear extract (UniProt Q92793); assay: FLAG IP/MS; conditions: nuclear fractions from A549 cells; four individual replicates; read off a plot
[2] = biological target: p300, A549 nuclear extract (UniProt Q09472); assay: FLAG IP/MS; conditions: nuclear fractions from A549 cells; four individual replicates; read off a plot
Sequence of UniProt Q09472 (Q09472 whole entry): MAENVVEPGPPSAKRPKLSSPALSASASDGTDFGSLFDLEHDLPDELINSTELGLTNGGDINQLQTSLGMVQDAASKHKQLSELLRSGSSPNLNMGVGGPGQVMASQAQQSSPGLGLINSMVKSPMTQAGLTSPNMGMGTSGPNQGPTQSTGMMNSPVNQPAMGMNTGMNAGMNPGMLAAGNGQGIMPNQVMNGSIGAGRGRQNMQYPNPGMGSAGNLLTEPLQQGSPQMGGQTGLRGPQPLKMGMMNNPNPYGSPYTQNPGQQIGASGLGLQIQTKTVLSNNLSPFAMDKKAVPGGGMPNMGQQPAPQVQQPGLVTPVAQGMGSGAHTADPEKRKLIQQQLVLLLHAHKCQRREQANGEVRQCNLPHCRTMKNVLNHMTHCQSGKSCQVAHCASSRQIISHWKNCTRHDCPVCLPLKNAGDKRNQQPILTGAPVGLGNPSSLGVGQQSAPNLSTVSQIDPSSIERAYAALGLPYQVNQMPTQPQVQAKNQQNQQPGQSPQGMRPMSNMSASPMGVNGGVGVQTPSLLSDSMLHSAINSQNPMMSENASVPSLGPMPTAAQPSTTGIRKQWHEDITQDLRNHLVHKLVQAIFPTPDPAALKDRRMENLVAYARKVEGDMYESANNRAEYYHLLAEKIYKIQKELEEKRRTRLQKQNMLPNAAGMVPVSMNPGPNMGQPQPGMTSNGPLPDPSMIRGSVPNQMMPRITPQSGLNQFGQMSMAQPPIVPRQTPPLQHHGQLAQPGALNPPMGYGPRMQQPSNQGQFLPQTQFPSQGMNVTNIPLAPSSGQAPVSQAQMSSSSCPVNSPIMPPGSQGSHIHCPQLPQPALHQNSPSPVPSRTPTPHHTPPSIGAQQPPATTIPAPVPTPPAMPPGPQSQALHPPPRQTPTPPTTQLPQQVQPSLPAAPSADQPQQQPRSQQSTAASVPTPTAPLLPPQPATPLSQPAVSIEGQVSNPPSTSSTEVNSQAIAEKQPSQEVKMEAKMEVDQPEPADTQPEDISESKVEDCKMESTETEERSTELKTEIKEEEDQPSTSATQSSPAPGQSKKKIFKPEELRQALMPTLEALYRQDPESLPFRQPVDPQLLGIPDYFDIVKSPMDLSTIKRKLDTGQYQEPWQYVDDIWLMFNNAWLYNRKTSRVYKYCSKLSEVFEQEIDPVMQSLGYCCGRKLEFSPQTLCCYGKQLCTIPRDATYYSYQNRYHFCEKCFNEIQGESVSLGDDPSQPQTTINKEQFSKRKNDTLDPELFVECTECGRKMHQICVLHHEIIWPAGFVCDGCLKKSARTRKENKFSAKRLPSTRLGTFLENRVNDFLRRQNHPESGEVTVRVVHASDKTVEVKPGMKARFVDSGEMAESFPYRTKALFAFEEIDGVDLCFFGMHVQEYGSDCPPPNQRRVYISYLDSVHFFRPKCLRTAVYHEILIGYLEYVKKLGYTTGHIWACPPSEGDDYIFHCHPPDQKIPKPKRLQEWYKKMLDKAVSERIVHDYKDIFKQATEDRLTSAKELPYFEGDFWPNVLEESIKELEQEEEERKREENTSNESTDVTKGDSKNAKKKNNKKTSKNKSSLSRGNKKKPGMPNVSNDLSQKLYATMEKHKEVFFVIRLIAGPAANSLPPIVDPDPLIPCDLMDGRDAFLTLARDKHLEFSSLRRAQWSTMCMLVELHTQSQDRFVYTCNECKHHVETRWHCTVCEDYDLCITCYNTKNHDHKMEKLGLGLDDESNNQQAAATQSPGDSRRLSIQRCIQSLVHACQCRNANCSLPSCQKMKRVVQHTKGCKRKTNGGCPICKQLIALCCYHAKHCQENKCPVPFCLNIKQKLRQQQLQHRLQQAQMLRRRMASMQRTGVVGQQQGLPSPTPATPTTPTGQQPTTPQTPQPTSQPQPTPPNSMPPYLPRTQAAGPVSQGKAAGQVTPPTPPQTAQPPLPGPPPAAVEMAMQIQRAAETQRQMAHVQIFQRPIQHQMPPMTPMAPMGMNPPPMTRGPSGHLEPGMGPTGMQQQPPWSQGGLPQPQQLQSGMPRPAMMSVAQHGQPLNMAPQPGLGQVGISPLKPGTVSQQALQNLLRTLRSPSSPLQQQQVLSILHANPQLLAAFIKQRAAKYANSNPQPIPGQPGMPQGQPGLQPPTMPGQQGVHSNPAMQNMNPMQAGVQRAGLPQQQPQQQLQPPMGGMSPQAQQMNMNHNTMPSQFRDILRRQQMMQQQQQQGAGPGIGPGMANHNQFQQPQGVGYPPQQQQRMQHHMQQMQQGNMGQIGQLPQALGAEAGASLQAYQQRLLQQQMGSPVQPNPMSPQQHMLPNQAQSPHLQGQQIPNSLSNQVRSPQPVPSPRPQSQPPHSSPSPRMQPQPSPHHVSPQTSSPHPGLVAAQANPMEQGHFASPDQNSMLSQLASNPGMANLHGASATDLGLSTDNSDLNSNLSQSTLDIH

Sequence of UniProt Q92793 (Q92793 whole entry): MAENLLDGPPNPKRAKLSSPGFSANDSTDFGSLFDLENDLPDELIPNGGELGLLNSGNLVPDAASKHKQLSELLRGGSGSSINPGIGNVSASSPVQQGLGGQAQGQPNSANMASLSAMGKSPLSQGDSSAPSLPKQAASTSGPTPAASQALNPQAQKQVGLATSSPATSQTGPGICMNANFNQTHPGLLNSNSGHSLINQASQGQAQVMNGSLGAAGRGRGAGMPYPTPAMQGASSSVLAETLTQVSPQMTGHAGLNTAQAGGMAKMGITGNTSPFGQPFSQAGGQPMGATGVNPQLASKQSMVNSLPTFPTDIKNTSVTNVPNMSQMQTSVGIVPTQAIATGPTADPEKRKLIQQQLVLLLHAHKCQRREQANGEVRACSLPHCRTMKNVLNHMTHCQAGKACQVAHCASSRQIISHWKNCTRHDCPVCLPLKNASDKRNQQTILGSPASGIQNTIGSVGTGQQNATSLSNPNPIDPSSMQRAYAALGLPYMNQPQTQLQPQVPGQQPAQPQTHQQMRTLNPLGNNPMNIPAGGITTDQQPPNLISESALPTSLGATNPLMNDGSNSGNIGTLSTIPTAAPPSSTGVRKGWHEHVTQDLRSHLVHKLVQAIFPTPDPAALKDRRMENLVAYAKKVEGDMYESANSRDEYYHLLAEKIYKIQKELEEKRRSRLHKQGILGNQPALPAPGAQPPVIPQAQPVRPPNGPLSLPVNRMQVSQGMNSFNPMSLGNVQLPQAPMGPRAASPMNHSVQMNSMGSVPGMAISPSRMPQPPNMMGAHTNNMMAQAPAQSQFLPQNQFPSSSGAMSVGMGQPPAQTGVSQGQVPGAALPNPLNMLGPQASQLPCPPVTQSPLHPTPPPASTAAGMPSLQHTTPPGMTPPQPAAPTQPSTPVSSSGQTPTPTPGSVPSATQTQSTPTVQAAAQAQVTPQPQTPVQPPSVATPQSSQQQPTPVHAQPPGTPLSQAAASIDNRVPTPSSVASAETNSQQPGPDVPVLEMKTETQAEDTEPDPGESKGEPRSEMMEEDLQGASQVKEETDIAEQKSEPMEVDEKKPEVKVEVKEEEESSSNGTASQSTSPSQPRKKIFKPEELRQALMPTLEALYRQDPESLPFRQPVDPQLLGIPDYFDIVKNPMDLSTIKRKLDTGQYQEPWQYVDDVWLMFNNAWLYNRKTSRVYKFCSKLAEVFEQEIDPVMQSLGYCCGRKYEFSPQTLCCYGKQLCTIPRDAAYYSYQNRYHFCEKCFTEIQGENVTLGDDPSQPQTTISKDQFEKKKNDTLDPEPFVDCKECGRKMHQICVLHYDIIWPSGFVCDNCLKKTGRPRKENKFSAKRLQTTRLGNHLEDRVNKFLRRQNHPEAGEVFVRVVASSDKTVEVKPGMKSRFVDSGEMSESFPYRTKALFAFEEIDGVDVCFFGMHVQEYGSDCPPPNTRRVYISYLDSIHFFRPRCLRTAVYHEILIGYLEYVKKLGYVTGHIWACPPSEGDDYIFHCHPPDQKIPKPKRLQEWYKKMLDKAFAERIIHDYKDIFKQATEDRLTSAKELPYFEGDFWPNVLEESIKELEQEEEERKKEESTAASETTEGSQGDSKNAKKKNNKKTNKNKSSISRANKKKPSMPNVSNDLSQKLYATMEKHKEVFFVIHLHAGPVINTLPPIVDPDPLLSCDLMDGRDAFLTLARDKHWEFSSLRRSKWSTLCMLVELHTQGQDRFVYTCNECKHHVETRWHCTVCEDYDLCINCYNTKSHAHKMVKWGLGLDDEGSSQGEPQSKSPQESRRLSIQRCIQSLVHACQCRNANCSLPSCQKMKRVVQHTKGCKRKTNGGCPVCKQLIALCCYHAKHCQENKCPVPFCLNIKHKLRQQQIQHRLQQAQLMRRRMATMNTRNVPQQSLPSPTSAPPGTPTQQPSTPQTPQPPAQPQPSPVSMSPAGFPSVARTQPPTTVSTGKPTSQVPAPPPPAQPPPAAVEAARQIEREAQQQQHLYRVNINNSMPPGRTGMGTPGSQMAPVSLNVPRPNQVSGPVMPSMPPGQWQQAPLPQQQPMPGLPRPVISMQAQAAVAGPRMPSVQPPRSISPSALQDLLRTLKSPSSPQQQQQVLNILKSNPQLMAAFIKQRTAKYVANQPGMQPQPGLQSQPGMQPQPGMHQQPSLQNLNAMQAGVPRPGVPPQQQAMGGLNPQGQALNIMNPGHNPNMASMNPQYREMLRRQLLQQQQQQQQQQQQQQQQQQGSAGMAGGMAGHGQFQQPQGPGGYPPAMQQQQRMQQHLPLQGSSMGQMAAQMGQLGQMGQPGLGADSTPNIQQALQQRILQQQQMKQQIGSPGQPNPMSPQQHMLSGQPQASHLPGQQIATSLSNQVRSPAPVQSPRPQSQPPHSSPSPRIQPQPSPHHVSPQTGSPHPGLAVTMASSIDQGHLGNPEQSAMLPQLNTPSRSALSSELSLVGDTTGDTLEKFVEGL

- other: log2(fold change) [1]: -3.8
- other: log2(fold change) [2]: -3.2
Substance: FLAG-tagged WT NRF2, stably expressed in A549 (TRE3G-driven, dox-induced) (from UniProt Q16236) Neh4: …>… (F>A; D>A; C>A; L>A); Neh5: …>… (Q>A; D>A; E>A; L>A)
